Assay results published in patent US20260078416A1, “ORTHOGONAL METABOLIC FRAMEWORK FOR ONE-CARBON UTILIZATION” (Mojia Biotech Pte. Ltd., priority 2021, published 2026).

B1: JGI20: HACS variant; GenBank PWB41796.1 (protein)
chain: MGQITGAQIVARALKQQGVEYMFGIVGIPVIPIAMFAQREGIKFYGFRNEQSASYAAAAVGYLTGRPGVCLGVSGPGMIHGVAGMANAWSNCWPMILIGGANDSYQNGQGAFQEAPQIEAARPFAKYCARPDSLARLPFYVEQAVRTSIYGRPGAVYLDLPGDIITGAMEEEDVHFPPRCPDAPRMMAPQESIDAAMAALKSAERPLVIVGKGAAYSRAENEVREFLETTQLPYLASPMGKGVMPDDHPLSIAPARSAALLGADVILLMGARLNWMMHFGHPPRFDPKVRVIQMDISAEEIGTNVPTEVALVGDAKAITTQLNASLKQQPWQYPSETTWWTGLRKKIDENGATVAEMMADESVPMSYYRVYREIRDLIPNDAIIQNEGASTMDIGRTLMPNFLPRHRLDAGSFGTMGVGLGQAIAAAAVHPDKHVFCIEGDSAFGFSGMEVETAARYGMKNITFIIINNNGIGGGPDTLDPTRVPPSAYTPNAHYEKMAEIYGGKGYFVTEPSQLRPALEEAIKADKPAIVNIMISATSQRKPQQFAWLTR
B2: JGI15: HACS variant; GenBank HAK63664.1 (protein)
chain: MAKSEGKVNGATLMARALQQQGVQYMFGIVGFPVIPIAIAAQREGITYIGMRNEQSASYAAQAASYLTGRPQACLVVSGPGVVHALAGLANAQVNCWPMLLIGGASAIEQNGMGAFQEERQVLLASPLCKYAHQVERPERIPYYVEQAVRSALFGRPGAAYLDMPDDVILGEVEEAAVRPAATVGEPPRSLAPQENIEAALDALQSAKRPLVIVGKGMAWSRAENEVRQFIERTRLPFLATPMGKGVMPDDHPLSVGGARSHALQEADLVFLLGARFNWILHFGLPPRYSKDVRVIQLDLSAEEIGNNRQAEVALVGDGKAIVGQLNQALSSRQWFYPAETPWREAIAAKIAGNQAAVAPMIADNTSPMNYYRVYRDIAARLPRNAIIVGEGANTMDIGRTQMPNFEPRSRLDAGSYGTMGIGLGFAVAAAAVHPGRPVIAVQGDSAFGFSGMEFETAARYGMPIKVIILNNGGIGMGSPAPRDGQPGMPHALSHDARYERIAEAFGGAGFYVTDSAELGPALDAAMAFKGPAIVNIKIAATADRKPQQFNWHG

Tested on: glycolate production from formaldehyde
Experiment: High throughput resting-cell screening of first round HACS variants co-expressed with LmACR
Assay type: cell-based, E. coli
Conditions: 5 mM formaldehyde, 3 hours
Description: We used glycolic acid (glycolate) productivity per cell density (uM glycolate/OD600) as indicator of HACS activity. Glycolate can be produced from formaldehyde as sole carbon source in the presence of active HACS variant and acyl-CoA reductase from Listeria monocytogenes (LmACR) (FIG. 20A). LmACR is shown to be capable of catalyzing oxidation reaction from formaldehyde to formyl-CoA (Chou, A., et al. Nat. Chem. Biol. 15:900-906 (2019)). HACS condenses formaldehyde and formyl-CoA to form glycolyl-CoA, which can then be hydrolyzed to glycolate via native thioesterase activities (FIG. 20A).
To prototype glycolate production pathway from formaldehyde in vivo, we constructed vectors overexpress various HACS candidates and LmACR, with both under control of the IPTG-inducible T7 promoter in pCDFDuet-1 and pETDuet-1, respectively (FIG. 20C). […]
Cells from the above pre-cultures were then centrifuged (4000 rpm, 22° C.), washed with the above minimal media without any carbon source, and resuspended with 1 mL of above minimal media containing indicated amounts of carbon source. […] After incubation at 30° C. for 3 hours, the cells were pelleted by centrifugation and the supernatant analyzed by HPLC or GC-MS as described below. […] The soluble cell lysates obtained from the supernatant were analyzed using SDS-PAGE. […]

Molecule | glycolate productivity and relative HACS expression compared with RuHACL
B1 | better glycolate productivity and relative HACS expression than the starting reference
B2 | better glycolate productivity and relative HACS expression than the starting reference
